Publication PMC12150503 (Cell Communication and Signaling : CCS, 2025)

T1: His-mouse IKKβ (purified) (mouse, UniProt O88351 1-757)
T1 sequence (looked up): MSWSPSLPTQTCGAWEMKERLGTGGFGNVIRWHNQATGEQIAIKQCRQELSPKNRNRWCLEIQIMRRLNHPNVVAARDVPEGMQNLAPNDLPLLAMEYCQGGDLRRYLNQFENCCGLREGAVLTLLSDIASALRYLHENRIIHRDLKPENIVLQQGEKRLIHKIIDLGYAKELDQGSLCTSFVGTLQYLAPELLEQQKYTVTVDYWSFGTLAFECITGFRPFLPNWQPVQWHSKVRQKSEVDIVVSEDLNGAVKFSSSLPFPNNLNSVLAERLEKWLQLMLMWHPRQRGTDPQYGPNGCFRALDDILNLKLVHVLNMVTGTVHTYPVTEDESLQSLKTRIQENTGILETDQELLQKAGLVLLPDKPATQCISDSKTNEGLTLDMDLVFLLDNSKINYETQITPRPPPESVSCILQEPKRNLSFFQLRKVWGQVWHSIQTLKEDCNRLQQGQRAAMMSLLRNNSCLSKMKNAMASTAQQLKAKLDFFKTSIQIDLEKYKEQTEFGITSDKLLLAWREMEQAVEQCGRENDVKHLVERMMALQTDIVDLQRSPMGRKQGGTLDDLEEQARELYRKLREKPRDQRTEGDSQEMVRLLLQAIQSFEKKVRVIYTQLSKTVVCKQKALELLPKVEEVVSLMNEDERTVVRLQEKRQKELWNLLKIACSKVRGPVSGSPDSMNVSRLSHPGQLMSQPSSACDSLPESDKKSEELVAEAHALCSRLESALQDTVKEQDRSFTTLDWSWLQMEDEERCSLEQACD


Molecular target: T1, His-mouse IKKβ (purified)
Assay: pull-down

Row | binding result | Binder
1 | binds | GST-mouse RMP-WT (natural protein, UniProt Q3TLD5 1-531, looked up) MEPPSEPEPEPQPLAEASAAAPLRAPEVARLREEQEKVVTNCQEKIQHWEKVDNDYSALQERLRTLPDKLSYDVMVPFGPLAFMPGKLVHTNEVTVLLGDNWFAKCSAKQAVGLVEHRKEHVRKTIDDFKKVLKNFESRVEFTEDLQKMSDAAGDFVDIREEIKSDFEFKGKQRIAHKPHSKPKTSDIFEADFENGVKPKNTFDADELWARLEELERQEELLGELESKPDTVIANGEDRVSSEEEKEGADTGVNVVSPVTDSSAASSCKRRAGNAGLPNGQVNSLNYSVNGSNSYHSNKDDDEEEEDDDDDDDEDDDNESDHAISADNSIPTIYFSHTVEPKRVRINTGKNTTLKFSEKKEEAKRKRKSGAGSHATHELPAIKSPADIYRVFVDVVNGEYVPRKSILKSRSRENSVCSDTSESSAADVEDRRGLLRSTSSEEAVATEAGGSSLDELQENHPKKPLPSGVSEAFSGTVIEKEFLSPSLAPYSAIAHHALPTIPERKEVPSEVSEEPTKRVSKFRAARLQQRS
2 | binds | GST-mouse RMP-S439A (natural protein, UniProt Q3TLD5 1-531, looked up) MEPPSEPEPEPQPLAEASAAAPLRAPEVARLREEQEKVVTNCQEKIQHWEKVDNDYSALQERLRTLPDKLSYDVMVPFGPLAFMPGKLVHTNEVTVLLGDNWFAKCSAKQAVGLVEHRKEHVRKTIDDFKKVLKNFESRVEFTEDLQKMSDAAGDFVDIREEIKSDFEFKGKQRIAHKPHSKPKTSDIFEADFENGVKPKNTFDADELWARLEELERQEELLGELESKPDTVIANGEDRVSSEEEKEGADTGVNVVSPVTDSSAASSCKRRAGNAGLPNGQVNSLNYSVNGSNSYHSNKDDDEEEEDDDDDDDEDDDNESDHAISADNSIPTIYFSHTVEPKRVRINTGKNTTLKFSEKKEEAKRKRKSGAGSHATHELPAIKSPADIYRVFVDVVNGEYVPRKSILKSRSRENSVCSDTSESSAADVEDRRGLLRSTASEEAVATEAGGSSLDELQENHPKKPLPSGVSEAFSGTVIEKEFLSPSLAPYSAIAHHALPTIPERKEVPSEVSEEPTKRVSKFRAARLQQRS
